Test results: patent publication EP2271364B1

Target: CD20 on human lymphoma cells (Daudi, Jeko-1) (human) (UniProt P11836)
Experiment: cell-based or functional assay

Chain of UniProt P11836 (P11836 whole entry): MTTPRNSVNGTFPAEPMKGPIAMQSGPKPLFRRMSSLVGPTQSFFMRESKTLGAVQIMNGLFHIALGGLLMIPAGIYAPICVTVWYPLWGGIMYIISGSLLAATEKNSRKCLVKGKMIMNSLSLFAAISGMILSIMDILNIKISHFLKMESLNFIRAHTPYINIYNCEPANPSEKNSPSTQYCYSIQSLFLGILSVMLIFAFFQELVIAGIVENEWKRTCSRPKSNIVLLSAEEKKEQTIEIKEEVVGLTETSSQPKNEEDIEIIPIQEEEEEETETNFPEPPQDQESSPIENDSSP

in vitro proliferation assay, Jeko-1 cells (MTS), high-concentration response	in vitro proliferation assay, Jeko-1 cells (MTS), low-concentration IFNα2b response	in vitro proliferation assay, Jeko-1 cells (MTS)	Substance
0.85 nM	0.97 pM	–	20-2b, a DNL conjugate of CH3-AD2-IgG-hA20 (CH3-AD2-IgG-v-mab) with four IFN-α2b-DDD2 moieties (from UniProt P01563 24-188)
–	–	1.5 nM	veltuzumab (humanized anti-CD20 MAb hA20) (antibody)
